The supplement of paper PMC12764529
± gives the half width of the 95% confidence interval.

Legend:
[1] = folding stability dG unfold from trypsin proteolysis; higher = more stable
Outline: (§1)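 Bayesian fitting of sequencing counts gave K50 for each design. Unfolding free energy followed by setting this against a sequence-predicted unfolded-state K50 and a shared folded-state K50, either per protease or with trypsin and chymotrypsin combined. The designs, under 80 residues and lacking cysteine, were digested in a PA-tagged cDNA display format at 11 threefold-diluted protease concentrations and without protease, and only those with AlphaFold2 dimer inter-PAE above 15 were kept.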

[2] = folding stability dG unfold from chymotrypsin proteolysis; higher = more stable
Outline: as §1

[3] = folding stability dG unfold (combined trypsin and chymotrypsin); higher = more stable
Outline: as §1

| Sequence | folding stability dG unfold [1] [kcal/mol] | folding stability dG unfold [2] [kcal/mol] | folding stability dG unfold [3] [kcal/mol] |
| --- | --- | --- | --- |
| SAGGSARPELVEYRVRIGDVEVRVVLPEGLEELLRRIPDVEVEPVRRFEAPPPPVVLERSELGDFASAGGSA [r15_443_TrMRF] | 1.56 ± 0.051 | 1.77 ± 0.11 | 1.71 ± 0.14 |
| SAGGSARPLYIKVQIRNPPNGKKKTIEIPIENMPPGDPEYYKEMARSIAEELQEQNGMEIEGIEIYSAGGSA [r15_1013_TrROS] | 0.731 ± 0.06 | 0.023 ± 0.27 | 0.566 ± 0.19 |
| SAGGSASEELVEEIANIIKPALEEEGIEVERVEATAVTLPDGTVVIPVRVRTKDGPEVLEFNIVILSAGGSA [r15_232_TrMRF] | 1.1 ± 0.027 | 1.235 ± 0.012 | 1.19 ± 0.038 |
| SAGGSASIEELLKEIIDNLKPGEKYKITIEVDGEEKTFTFTNKNGEKIEIVVKDGKIVSIKIEKLPSAGGSA [r15_175_TrROS_Hall] | 2.5 ± 0.4 | 4.21 ± 0.12 | 3.97 ± 0.3 |
| SAGGSASIEIPFNGHPYKIEIDDVEPPDEQYRAKAEIRFPGNGKKIPVEGDMPKSDAEDAIKEAIRSAGGSA [r15_944_TrROS] | -0.527 ± 0.19 | 0.49 ± 0.16 | 0.362 ± 0.25 |
| SAGGSASIPEKIAEELKEKYGVTEIKILSVDPNGIIKVELKSIEKNEGKLIEKTYKVTVKVPKNLLSAGGSA [r15_646_JUSTAS] | 1.86 ± 0.071 | 2.23 ± 0.034 | 2.14 ± 0.078 |
| SAGGSASLTVVYPGGETRTFDVSAVSPEFLRAHPDVTVTLPGGEERRLAGDTELSPAGPHTITVPASAGGSA [r15_733_JUSTAS] | 2.39 ± 0.11 | 1.8 ± 0.083 | 2.06 ± 0.088 |
| SAGGSASMIVKEVKDKVDPAGSVPPDAVIRLETKVDPATGVWTIKVYTEEGKEIGESTVFVKPGILSAGGSA [r15_134_JUSTAS] | 0.447 ± 0.054 | 0.629 ± 0.083 | 0.602 ± 0.069 |
| SAGGSASMTLYRDEEGKPLFHHSPEPTSSVPRVVPVVNEEGDEKLEIEIPADTPLEELEAIIEELLSAGGSA [r15_309_JUSTAS] | 0.0733 ± 0.04 | -0.33 ± 0.18 | -0.0861 ± 0.096 |
| SAGGSASPFYIAYDPNKPNVATIYPSSQPNLSGSNGATVTPLTDEAELAALKAELKAAGITTITFSSAGGSA [r15_1004_JUSTAS] | 0.834 ± 0.054 | 0.355 ± 0.22 | 0.65 ± 0.11 |
| SAGGSASPSEVRTITATLPGGVVREFEVKMPPGTTVYIPEEGKTITVPPDSSLPLPPDVSVEVRLESAGGSA [r15_152_JUSTAS] | -0.353 ± 0.017 | -0.106 ± 0.021 | -0.148 ± 0.058 |
| SAGGSASPVFVATRISLPGGNASVDTSRYDPSSGTLTITVTLPDGTTTTITLTGPVSEYPADRLLLSAGGSA [r15_596_JUSTAS] | 1.04 ± 0.022 | 1.16 ± 0.051 | 1.13 ± 0.061 |
| SAGGSASPVTVTYTDPNSTVLESVYTPSSGIVYVKYKVGDKWYLVTVKLDPSGSSVSSVTKEPLPPSAGGSA [r15_297_JUSTAS] | 1.55 ± 0.04 | 2.13 ± 0.041 | 1.95 ± 0.043 |
| SAGGSASSPGTPVKLNVNAIITKKLPDGTITTEPGRTLDLPEEEAIEYLKSLPSSYSVEIESIVVESAGGSA [r15_833_JUSTAS] | -0.347 ± 0.15 | 0.0371 ± 0.15 | -0.115 ± 0.087 |
| SAGGSASSSEKIRITYLKDGVEYEVTFPLVELVTDPNTGVTTVTLPPEFKELFPGPITVTEVEIPPSAGGSA [r15_710_JUSTAS] | 1.42 ± 0.035 | 2.267 ± 0.019 | 1.99 ± 0.032 |
| SAGGSASSVPVELEYETPGDPSSSSYTLEPVDLPPELASRIVEVTAKVEKEGGKLKITATVTLTDLSAGGSA [r15_321_JUSTAS] | 0.723 ± 0.12 | 0.137 ± 0.25 | 0.48 ± 0.2 |
| SAGGSASTLRLIVIPPSYPNMTIEEAIKNIKIKRPDGKEFEVEVLEVIPVKDYRLLLVRIKDPIPYSAGGSA [r15_331_TrMRF] | 2.32 ± 0.058 | 2.46 ± 0.071 | 2.43 ± 0.14 |
| SAGGSASTPDGKTKTYTNTNPGATEEEVKPIAEEIAKEIAEKLGLDLSEIGISVSYDPNTGTISPLIGSAGG [r13_913_JUSTAS] | -0.00514 ± 0.061 | -0.321 ± 0.49 | -0.105 ± 0.59 |

| Sequence | folding stability dG unfold [1] [kcal/mol] | folding stability dG unfold [2] [kcal/mol] | folding stability dG unfold [3] [kcal/mol] |
| --- | --- | --- | --- |
| SAGGSASVKIEVTVSPEQPDLTEEEAKAALTLTLPDGRPVKVEVLEVKPVPGSTVLLVEVEENVLLSAGGSA [r15_331_JUSTAS] | 1.64 ± 0.061 | 0.487 ± 0.073 | 1.13 ± 0.079 |
| SAGGSASVSPVTLPLEVAPDEEVEGTLTLTLPSGPTVTYTAEITEVSPDGTANPVVTIDDTPVVVESAGGSA [r15_844_JUSTAS] | 1.39 ± 0.053 | 0.392 ± 0.091 | 0.965 ± 0.045 |
| SAGGSATAEELAEEIAREIAEAFPAEVVRVEVEEVDEDRVVFRMEVRVPLPDGSTVRAPFTVVVPASAGGSA [r15_276_TrMRF] | 0.572 ± 0.042 | 0.778 ± 0.14 | 0.693 ± 0.1 |
| SAGGSATITIEVNGKPITIEFDKKNKTYTITLPNGKKVEVKVVDGELYITFANGEKRKISLKELKPSAGGSA [r15_448_TrROS_Hall] | 2.68 ± 0.12 | 4.34 ± 0.15 | 3.81 ± 0.17 |
| SAGGSATVEEIAKYFAEQHPGMEPKSVKLDYERNPEEGVYRIKVNITMRFDDNKKHKMPVEIQFPVSAGGSA [r15_266_TrROS] | 0.406 ± 0.059 | 0.358 ± 0.14 | 0.433 ± 0.085 |
| SAGGSAVIVIETRADDPRLLEAIKKAREEGKPVVVRFPDGKALVFYPEGPVEEVDSPEQLKEAGFGSAGGSA [r15_94_TrMRF] | 2.19 ± 0.033 | 1.716 ± 0.011 | 1.94 ± 0.031 |
| SAGGSAVPAGTTFELRYPEDEGSLTLTYDPSTNTVTITDGDKTTTYSSTSLEEVLKELGAELASRLSAGGSA [r15_500_JUSTAS] | 0.998 ± 0.041 | 1.35 ± 0.094 | 1.22 ± 0.09 |
| SAGGSAVPKLPTGVEVEPLAVIDPETASPEEIRALLAEHPGPLLVRPSSTGEWRVVPAEELLALLGSAGGSA [r15_904_JUSTAS] | 0.984 ± 0.034 | 1.19 ± 0.076 | 1.1 ± 0.071 |
| SAGGSAWPAKEIAKELNPGFPVDVEPEPVPNKDGKDMVTIEARFPNGWKIQIVFRNGKPEAIQWQKSAGGSA [r15_417_TrROS] | 1.47 ± 0.032 | 2.28 ± 0.11 | 1.97 ± 0.095 |
| SAGGSDDPAKDIDLDIPVVVLEEEEARELARELDKPIIFRLPDGRLRVFYPDGREEEFPLPKPEELSAGGSA [r2_34_TrMRF] | 3.38 ± 0.066 | 2.65 ± 0.022 | 2.96 ± 0.039 |
| SAGGSDEVTIDFQVKYNGQPFTVRITIERDPPDGKIEIPVEISYPNPEMREPAREIARNIVRELLNSAGGSA [r2_259_TrROS] | 0.873 ± 0.07 | 1.66 ± 0.17 | 1.32 ± 0.095 |
| SAGGSDKEHDVEIKINIYVHDDGYIHIDIEVYNPGSPRPIMKFTIHIPAKDMQKKTGRPMTLEDILSAGGSA [r2_180_TrROS] | 1.73 ± 0.16 | 2.75 ± 0.074 | 2.38 ± 0.2 |
| SAGGSDKVVEIPIDIPNGYTVTIRMHPDDGTARVEVSPNMPPNRVLEKIKKIFDDNGYRILPIEIVSAGGSA [r2_497_TrROS] | 1.2 ± 0.03 | 0.796 ± 0.053 | 1.01 ± 0.077 |
| SAGGSDTLKKLFPGVKEIEIEVEPYWVPMPPEMAKDNPEAPGQTFPVPRVKITIKIELPRDPDGKLSAGGSA [r2_404_TrROS] | 1.09 ± 0.065 | 0.324 ± 0.18 | 0.772 ± 0.12 |
| SAGGSEEERKRILEELKKKNPEKDVEVKVERKTYKVPAGTVVTLPDGTKIVAPADTTVEIYKVEIIKSAGGS [r16_357_JUSTAS] | 1.32 ± 0.068 | 2.14 ± 0.037 | 1.95 ± 0.2 |
| SAGGSEFEIIEVKDGTVVIRNKKTNELITVKVKIEVKPPPPVVVKKPGEEVTVKEGKKVTVLKEGEKKSAGG [r13_322_TrROS_Hall] | -0.188 ± 0.18 | 0.916 ± 0.13 | 0.498 ± 0.18 |
| SAGGSEFPLRITDIHILGGYIVITFQVPPGLDKLEIKIKIELGGKPIEVTMEYTPGNGYMTMIIRLSAGGSA [r2_261_TrROS] | 4.46 ± 0.21 | 5.52 ± 0.14 | 5.57 ± 0.31 |
| SAGGSEITEEEAEKLKELFPNADITVEKVKPGETKTFPNGFRIEKTEDGYRVTVTLPNGEKLEFPVSAGGSA [r2_166_TrROS_Hall] | 1.1 ± 0.043 | 1.37 ± 0.053 | 1.33 ± 0.11 |
